Key:
integrin αvβ3 [1] = molecular target: T1, integrin αvβ3 (human, UniProt P06756 31-1048; P05106 27-788); experiment: HUVEC adhesion to immobilized peptide with function blocking antibodies
T1 construct: whole, on cells; Endogenous receptor on cells; also called β3 integrin
Method: RGD peptides (P-1, P-2, P-3, P-4, P-5, and P-C) were immobilized (100 μg/ml) to wells. HUVEC, HMVEC, HRMVEC, and HDF cells were suspended in adhesion buffer (RPMI containing 1 mM MgCl2, 0.2 mM MnCl2 and 0.5% BSA) and 1×10^5 cells were seeded into the wells in the presence or absence of P4C10, LM609, P1F6 or control antibodies (100 μg/ml). Cells were allowed to attach for 25 min at 37° C. Media containing non-attached cells was aspirated and attached cells were washed with PBS and stained with crystal violet. Cell adhesion was quantified by measuring the optical density of eluted dye. Adhesion assays were completed at least three times with triplicate wells.
It is well established that multiple integrins recognize RGD amino acid motifs within ECM proteins. However, the ability of an integrin to bind distinct RGD epitopes depends in part on its orientation within the parent molecule and the C-terminal amino acid sequences flanking the RGD motif (25-27). Potential cell surface receptors that mediate interactions with the RGDKGE (SEQ ID NO. 1) containing collagen P-2 peptide were identified. The ability of endothelial cells to bind the RGD collagen peptides P-1 and P-2 in the presence or absence of function blocking anti-integrin antibodies was examined.

integrin αvβ3 [2] = molecular target: T1, integrin αvβ3; experiment: cell-based or functional assay

T1 sequence (P06756 31-1048, chain 1 of 2): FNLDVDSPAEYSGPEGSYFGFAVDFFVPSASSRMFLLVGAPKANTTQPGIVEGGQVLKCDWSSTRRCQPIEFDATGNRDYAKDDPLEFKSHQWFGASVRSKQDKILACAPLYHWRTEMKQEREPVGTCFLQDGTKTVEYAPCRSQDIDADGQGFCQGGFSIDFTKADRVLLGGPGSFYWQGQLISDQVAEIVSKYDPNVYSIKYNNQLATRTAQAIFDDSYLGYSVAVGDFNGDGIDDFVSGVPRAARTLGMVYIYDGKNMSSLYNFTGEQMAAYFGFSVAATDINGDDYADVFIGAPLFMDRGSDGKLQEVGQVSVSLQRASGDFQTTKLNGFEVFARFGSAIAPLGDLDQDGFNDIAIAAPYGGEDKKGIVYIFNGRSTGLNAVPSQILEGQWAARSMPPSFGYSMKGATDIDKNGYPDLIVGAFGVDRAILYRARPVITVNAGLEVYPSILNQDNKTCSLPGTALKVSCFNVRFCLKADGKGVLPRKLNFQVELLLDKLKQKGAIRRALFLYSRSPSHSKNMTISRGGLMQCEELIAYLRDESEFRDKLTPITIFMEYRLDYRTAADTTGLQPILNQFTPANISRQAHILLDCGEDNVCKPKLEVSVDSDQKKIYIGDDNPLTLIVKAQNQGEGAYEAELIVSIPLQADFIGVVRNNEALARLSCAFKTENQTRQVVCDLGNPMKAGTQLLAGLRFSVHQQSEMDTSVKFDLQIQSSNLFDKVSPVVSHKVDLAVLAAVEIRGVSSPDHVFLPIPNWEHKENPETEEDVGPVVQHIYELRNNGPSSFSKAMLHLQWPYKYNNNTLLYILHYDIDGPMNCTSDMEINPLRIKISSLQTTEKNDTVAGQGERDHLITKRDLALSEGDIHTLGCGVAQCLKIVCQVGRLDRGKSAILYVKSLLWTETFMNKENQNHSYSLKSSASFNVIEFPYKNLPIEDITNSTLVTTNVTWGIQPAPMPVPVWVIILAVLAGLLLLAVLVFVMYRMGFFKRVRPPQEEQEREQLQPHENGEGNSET
T1 sequence (P05106 27-788, chain 2 of 2): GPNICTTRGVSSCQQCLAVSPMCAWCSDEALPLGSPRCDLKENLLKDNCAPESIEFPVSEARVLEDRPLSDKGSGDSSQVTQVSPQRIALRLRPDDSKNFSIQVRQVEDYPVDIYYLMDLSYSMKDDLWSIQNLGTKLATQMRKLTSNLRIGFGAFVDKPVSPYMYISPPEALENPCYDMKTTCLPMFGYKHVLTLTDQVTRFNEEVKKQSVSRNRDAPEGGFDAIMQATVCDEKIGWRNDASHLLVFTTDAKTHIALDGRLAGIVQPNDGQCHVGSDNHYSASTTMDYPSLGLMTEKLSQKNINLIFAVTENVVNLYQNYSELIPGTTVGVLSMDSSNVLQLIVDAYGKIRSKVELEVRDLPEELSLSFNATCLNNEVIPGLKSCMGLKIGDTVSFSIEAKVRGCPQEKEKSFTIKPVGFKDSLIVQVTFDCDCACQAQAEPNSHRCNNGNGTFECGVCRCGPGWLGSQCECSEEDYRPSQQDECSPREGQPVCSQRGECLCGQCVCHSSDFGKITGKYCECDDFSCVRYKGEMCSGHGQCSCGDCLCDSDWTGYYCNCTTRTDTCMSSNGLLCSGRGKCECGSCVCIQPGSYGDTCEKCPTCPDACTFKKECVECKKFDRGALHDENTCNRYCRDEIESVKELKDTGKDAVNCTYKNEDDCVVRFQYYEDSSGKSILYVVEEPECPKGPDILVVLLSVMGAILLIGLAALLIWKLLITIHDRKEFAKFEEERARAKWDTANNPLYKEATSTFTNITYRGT

Binder	binding result (integrin αvβ3 [1])	Src phosphorylation (Western blot of HUVEC attached to the peptide, serum free) (integrin αvβ3 [2])	β3-integrin phosphorylation (Western blot of HUVEC attached to the peptide, no growth factors) (integrin αvβ3 [2])
CKGDRGDAPGC (2) [Synthetic collagen RGD containing peptide P-1 (CKGDRGDAPGC)]	binds	–	–
CQGPRGDKGEC [Synthetic collagen RGD containing peptide P-2 (CQGPRGDKGEC)]	–	~2 fold	> 3 fold

Source: patent publication US20210100901A1 (MAINE MEDICAL CENTER RESEARCH INSTITUTE, published 2021)
